The values below come from patent publication US5795865A, “Kallikrein-inhibiting "kunitz domain" proteins and analogues thereof” (Dyax Corp., priority 1996, dated 1998).

As a reminder, the Ki is a measure of affinity in units of concentration, obtained from inhibition or displacement.

Read-outs that look alike come from different tables or passages of the source.

In one test the target is T1, human plasma Kallikrein (Homo sapiens, UniProt P03952).
T1 construct: Hydrolysis of the Arg371 -Ile372 peptide bond yields a two-chain proteinase joined by a disulfide bond; purchased Calbiochem 420302
The experiment in a line: Binding of display-phage to kallikrein-agarose beads (Table 8). Particulars: for Relative Binding: fraction bound relative to the parental display-phage, LACI-K1; for Fraction Bound: pfu's eluted as a fraction of the input number (10^10 pfu's). The procedure: This method is highly sensitive because the genetic packages can be amplified. We obtain at least semiquantitative values for the binding constants by use of a pH step gradient. […] Any other suitable method of measuring protein binding may be used.
The overall scheme for selecting a LACI-K1 variant to bind to a given protease involves incubation of the phage-display library with the kallikrein-beads of interest in a buffered solution (PBS containing 1 mg/ml BSA) followed by washing away the unbound and poorly retained display-phage variant with PBS containing 0.1% Tween 20. Kallikrein beads were made by coupling human plasma Kallikrein (Calbiochem, San Diego, Calif., # 420302) to agarose beads using Reactigel (6x) (Pierce, Rockford, II, #202606). The more strongly bound display-phage are eluted with a low pH elution buffer, typically citrate buffer (pH 2.0) containing 1 mg/ml BSA, which is immediately neutralized with Tris buffer to pH 7.5. This process constitutes a single round of selection.

The next test deals with plasma kallikrein (pKA) (Homo sapiens, UniProt P03952). Put plainly: Inhibition of human plasma kallikrein (measured Ki taken as KD), yeast-expressed purified proteins. Format: biochemical. Set-up: Hydrolysis of the Arg371 -Ile372 peptide bond yields a two-chain proteinase joined by a disulfide bond. Conditions: for Ki: preliminary measurements. The procedure: (§1) A second appropriate method of measuring KD is to measure the inhibitor activity against the enzyme. […] For the proteins of this invention, having KD in the range 5 nM to 50 pM, nanograms to micrograms of inhibitor suffice. When using this method, the competition between the inhibitor and the enzyme substrate can give a measured Ki that is higher than the true Ki. Measurement reported here are not so corrected because the correction would be very small and the any correction would reduce the Ki. Here, we use the measured Ki as a direct measure of KD.
The three isolates KKII/3#6, KK2/#11, and KK2/#13 were recloned into a yeast expression vector. The yeast expression vector is derived from pMFalpha8 (KURJ82 and MIYA85). The LACI variant genes were fused to part of the matα 1 gene, generating a hybrid gene consisting of the matα 1 promoter-signal peptide and leader sequence-fused to the LACI variant. Note that the correctly processed LACI-K1 variant protein should be as detailed in Table 2 with the addition of residues glu-ala-ala-glu (SEQ ID NO: 70) to the N-terminal met (residue 1 in Table 2). Expression in S. cerevisiae gave acceptable yield typical of this system.

A further test deals with plasmin (Homo sapiens, UniProt P00747). Put plainly: Inhibition of plasmin (Ki). Format: biochemical. The procedure: as §1
The conditions of test [1]: about 840 mg, 80 open-heart surgery patients, FRAE89; cited from earlier work.
Setting [2] is: not corrected for substrate competition, read-out: Ki for plasma kallikrein (pKA).
The mark [3] stands for this setting: stated as 'probably less than', read-out: Ki for plasma kallikrein (pKA), probable bound.

T1 sequence (P03952 391-638 limits assumed): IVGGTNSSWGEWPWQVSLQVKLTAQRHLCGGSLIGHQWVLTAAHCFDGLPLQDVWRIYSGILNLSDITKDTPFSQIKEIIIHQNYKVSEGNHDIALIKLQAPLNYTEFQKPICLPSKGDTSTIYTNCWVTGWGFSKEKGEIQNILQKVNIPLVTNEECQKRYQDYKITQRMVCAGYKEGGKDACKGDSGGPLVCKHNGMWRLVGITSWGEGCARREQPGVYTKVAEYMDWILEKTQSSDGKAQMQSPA
T1 sequence (P03952 20-390 partner limits assumed): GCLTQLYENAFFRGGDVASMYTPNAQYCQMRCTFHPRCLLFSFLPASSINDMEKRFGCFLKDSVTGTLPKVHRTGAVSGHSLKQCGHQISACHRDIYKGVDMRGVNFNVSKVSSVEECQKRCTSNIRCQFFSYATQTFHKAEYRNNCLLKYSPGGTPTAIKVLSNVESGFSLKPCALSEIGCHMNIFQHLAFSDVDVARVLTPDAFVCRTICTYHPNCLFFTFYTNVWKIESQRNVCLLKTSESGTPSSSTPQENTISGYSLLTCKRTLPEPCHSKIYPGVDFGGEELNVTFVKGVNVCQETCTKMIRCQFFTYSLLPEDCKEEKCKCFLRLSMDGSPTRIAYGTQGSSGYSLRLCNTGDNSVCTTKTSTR
plasma kallikrein (pKA), sequence (P03952 391-638 limits assumed): as the sequence (P03952 391-638 limits assumed) above
plasma kallikrein (pKA), sequence (P03952 20-390 partner limits assumed): as the sequence (P03952 20-390 partner limits assumed) above
plasmin, sequence (P00747 581-810 limits assumed): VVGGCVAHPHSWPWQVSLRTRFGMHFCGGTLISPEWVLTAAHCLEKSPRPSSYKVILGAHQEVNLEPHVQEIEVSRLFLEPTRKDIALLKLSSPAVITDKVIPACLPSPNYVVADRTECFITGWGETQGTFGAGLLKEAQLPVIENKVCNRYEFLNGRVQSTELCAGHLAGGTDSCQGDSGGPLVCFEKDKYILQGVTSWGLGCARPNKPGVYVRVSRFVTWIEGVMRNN
plasmin, sequence (P00747 97-580 partner limits assumed): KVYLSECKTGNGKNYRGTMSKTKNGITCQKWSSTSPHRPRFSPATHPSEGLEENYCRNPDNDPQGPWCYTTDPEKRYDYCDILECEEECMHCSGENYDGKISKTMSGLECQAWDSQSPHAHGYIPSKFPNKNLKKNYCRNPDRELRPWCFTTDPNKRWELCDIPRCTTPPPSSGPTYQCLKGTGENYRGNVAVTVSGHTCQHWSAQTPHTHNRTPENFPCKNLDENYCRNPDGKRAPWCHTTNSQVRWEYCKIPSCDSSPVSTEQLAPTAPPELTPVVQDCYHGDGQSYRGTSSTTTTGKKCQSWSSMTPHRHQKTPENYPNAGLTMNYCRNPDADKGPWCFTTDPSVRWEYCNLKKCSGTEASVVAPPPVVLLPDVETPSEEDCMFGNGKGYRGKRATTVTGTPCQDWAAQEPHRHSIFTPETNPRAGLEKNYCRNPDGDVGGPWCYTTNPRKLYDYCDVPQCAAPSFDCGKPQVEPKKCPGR

As for “KKII/3#5: LACI-K1 variant Kunitz domain, SEQ ID NO. 9 (MHSFCAFKADDGHCKASLPRFFFNIFTRQCEEFIYGGCGGNQNRFESLEECKKMCTRD)”, in the test with human plasma Kallikrein, the “Relative Binding” value is recorded as 928 and the “Fraction Bound” value is given as 3.9 × 10^-3.
Turning to “KK2/#11: second-library LACI-K1 variant Kunitz domain, SEQ ID NO. 22 (MHSFCAFKADDGPCRAAHPRWFFNIFTRQCEEFSYGGCGGNQNRFESLEECKKMCTRD)”, the Ki in the test with plasma kallikrein (pKA) (setting [2]) was < 0.3 nM; with plasma kallikrein (pKA) (setting [3]), < 0.1 nM.
“KKI/3(a): LACI-K1 variant Kunitz domain, phase I selectant, SEQ ID NO. 15 (MHSFCAFKADDGRCKGAHLRFFFNIFTRQCEEFIYGGCEGNQNRFESLEECKKMCTRD)”: in the test with human plasma Kallikrein, the “Relative Binding” value worked out at 761 and the “Fraction Bound” value is reported as 3.2 × 10^-3.
In the case of “KK2/#13: second-library LACI-K1 variant Kunitz domain, SEQ ID NO. 19 (MHSFCAFKADGGRCRGAHPRWFFNIFTRQCEEFSYGGCGGNQNRFESLEECKKMCTRD)”, the results for the Ki in the test with plasma kallikrein (pKA) (setting [2]) and with plasma kallikrein (pKA) (setting [3]) were < 0.3 nM and < 0.1 nM, respectively.
On to “KKI/3(b): LACI-K1 variant Kunitz domain, phase I selectant, SEQ ID NO. 16 (MHSFCAFKADDGPCKAIHLRFFFNIFTRQCEEFIYGGCEGNQNRFESLEECKKMCTRD)”, for which, in the test with human plasma Kallikrein, the “Relative Binding” value worked out at 524 and the “Fraction Bound” value is 2.2 × 10^-3.
For “KKII/3#6: lead pKA inhibitor, LACI-K1 variant Kunitz domain, SEQ ID NO. 10 (MHSFCAFKADDGHCKANHQRFFFNIFTRQCEEFSYGGCGGNQNRFESLEECKKMCTRD)”, the Ki was 10 µM with plasmin, ~0.3 nM with plasma kallikrein (pKA) (setting [2]) and < 0.5 nM with plasma kallikrein (pKA) (setting [3]). Also, in the test with human plasma Kallikrein, the “Relative Binding” value is 2071. Further, the “Fraction Bound” value with human plasma Kallikrein is 8.7 × 10^-3. Besides, in the test with plasma kallikrein (pKA) (versus both wild-type LACI and BPTI), the “Ki for kallikrein relative to wild-type LACI and BPTI (times)” value is given as “over 100 times”.
With “bovine pancreatic trypsin inhibitor [BPTI]”, the “Fraction Bound” value on human plasma Kallikrein is 2.5 × 10^-5. Moreover, the “decrease of mean amount transfused” value in test [1] is on record as 74%.
“LACI-K1: first Kunitz domain of human LACI (residues 50 to 107), parental molecule, SEQ ID NO. 3 (MHSFCAFKADDGPCKAIMKRFFFNIFTRQCEEFIYGGCEGNQNRFESLEECKKMCTRD) [reference compound]”: the “Fraction Bound” value with human plasma Kallikrein is 4.2 × 10^-6.
